Where two headings read alike, the source gives them in different places.

Data set [1] deals with T1, wheat eIF4E (Triticum aestivum, UniProt P29557).
T1 sequence (P29557 39-215): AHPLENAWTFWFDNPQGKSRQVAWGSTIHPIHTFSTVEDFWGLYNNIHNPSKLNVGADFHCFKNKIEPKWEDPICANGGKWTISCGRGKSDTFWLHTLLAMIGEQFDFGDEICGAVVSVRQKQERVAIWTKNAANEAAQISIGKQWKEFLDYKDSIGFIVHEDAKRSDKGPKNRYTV
Nature of the data set: isothermal titration calorimetry. The class given is binding. For orientation: Isothermal titration calorimetry measures the heat released or taken up as one component is titrated into another.

In data set [2] the target is T2, human eIF4E (human, UniProt P06730). Nature of the data set: ITC.
Data set [3] addresses T2, human eIF4E. Nature of the data set: ITC. This is another data set of the same source.
In data set [4] the target is T2, human eIF4E. Kind of data set: ITC. This is another data set of the same source.
The target of data set [5] is GB1-human eIF4E (human, UniProt P06730). Kind of data set: ITC.
Data set [6] has as its target T2, human eIF4E. Kind of data set: ITC. This is another data set of the same source.

In general, Kd refers to the constant that tells how readily two partners part at equilibrium. In data set [1], `C[n+]1cn([C@@H]2O[C@H](COP(=O)(O)OP(=O)(O)OP(=O)(O)O)[C@@H](O)[C@H]2O)c2nc(N)[nH]c(=O)c21` [m7GTP] displayed a Kd of 1800 ± 800 nM.
As to GGGGUCUCUCUUGUCGAGAGGCAAGGAACCC (ssRNA, 5' cap (m7G)) [5' capped RNA], the Kd in data set [2] is 76 ± 3 nM.

B1: SCV PTE G18C (structured_RNA)
RNA: GGUUGCUCGACUGUGAGCGGACCUACCCACUGUGGAAACACCACAGGAACUUCCAACCUUCGGGUGGCGAGGUAGGGCAGAAGAGUGACC
With B1, the binding result in data set [3] is on record as “no binding”.

B2: SCV PTE G18A (structured_RNA)
RNA: GGUUGCUCGACUGUGAGAGGACCUACCCACUGUGGAAACACCACAGGAACUUCCAACCUUCGGGUGGCGAGGUAGGGCAGAAGAGUGACC
Molecule B2 displayed a Kd in data set [4] of 6200 ± 900 nM.

B3: SCV PTE G18U (structured_RNA)
RNA: GGUUGCUCGACUGUGAGUGGACCUACCCACUGUGGAAACACCACAGGAACUUCCAACCUUCGGGUGGCGAGGUAGGGCAGAAGAGUGACC
For B3, in data set [3], the binding result is “no binding”.

B4: SCV PTE WT (structured_RNA)
RNA: GGUUGCUCGACUGUGAGGGGACCUACCCACUGUGCUGCCACACAGGAACUUCCAACCUUCGGGUGGCGAGGUAGGGCAGAAGAGUGACC
With B4, the Kd in data set [5] was determined as 900 ± 236 nM; in data set [6] it was 576 ± 56 nM.

The values above are taken from paper PMC10823258 (Proceedings of the National Academy of Sciences of the …, 2024).
